One data set deals with T1, npr1(L284D)-HA (Arabidopsis thaliana, UniProt P93002 1-593).
T1 construct: not shown: C-terminal HA tag from vector pLN462
T1 sequence: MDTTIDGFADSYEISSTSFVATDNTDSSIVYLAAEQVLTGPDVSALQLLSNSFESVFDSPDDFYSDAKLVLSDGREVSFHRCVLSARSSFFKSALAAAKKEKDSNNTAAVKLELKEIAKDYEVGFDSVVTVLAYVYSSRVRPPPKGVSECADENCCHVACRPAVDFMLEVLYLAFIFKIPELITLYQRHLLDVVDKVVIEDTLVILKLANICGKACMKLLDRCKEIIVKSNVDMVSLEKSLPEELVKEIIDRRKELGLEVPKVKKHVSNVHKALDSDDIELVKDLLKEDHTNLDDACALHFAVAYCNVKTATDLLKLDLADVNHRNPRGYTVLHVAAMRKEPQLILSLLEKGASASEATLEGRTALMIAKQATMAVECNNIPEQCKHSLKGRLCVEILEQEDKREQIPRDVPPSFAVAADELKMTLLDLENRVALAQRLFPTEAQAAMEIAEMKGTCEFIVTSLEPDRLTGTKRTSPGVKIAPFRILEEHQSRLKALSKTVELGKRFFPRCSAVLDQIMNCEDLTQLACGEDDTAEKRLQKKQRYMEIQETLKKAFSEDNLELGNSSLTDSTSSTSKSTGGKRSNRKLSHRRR
Kind of data set: co-immunoprecipitation after transient co-expression in N. benthamiana. The protocol: (§1) For plant transformations, the Agrobacterium tumefaciens strain GV3101 was transformed with plant binary vectors carrying the indicated transgenes. For stable expression in Arabidopsis, a floral dipping method was used. For transient expression in N. benthamiana, the Agrobacterium carrying the indicated construct was cultured over-night at 28° C. in LB broth medium supplemented with appropriate antibiotics: spectinomycin (100 μg ml-1), kanamycin (50 μg ml-1), gentamycin (50 μg ml-1) and rifampicin (25 μg ml-1). The obtained culture was re-inoculated at 1:10 into fresh growth medium with antibiotics and grown for another 4 h. Cells were then centrifuged at 1,600g for 10 min, and inoculum was prepared by resuspending cells to an OD600 of 1 in double-distilled water containing 200 μM acetosyringone (Sigma-Aldrich). The co-expression assays were per-formed with a 1:1 mixture of Agrobacteria inoculums. The inoculum was pressure-infiltrated into N. benthamiana leaves at the abaxial side using 1 ml syringe without the needle.
(§2) Recombinant protein analysis, co-immunoprecipitation and cell-free oligomerization were performed using total protein extracts from the transient expression assay in N. benthamiana as described previously. Interaction analysis of NPR1-HA with TGA3-mRFP or NPR1-GFP (self-interaction), was performed in vivo by transiently co-expressing the two proteins in N. benthamiana followed by treatment with water (mock) or 1 mM SA for 5 h. Total protein was extracted and used for co-immunoprecipitation with anti-RFP or anti-HA beads, respectively. In the NPR1-HA/TGA3-mRFP interaction experiments the npr1-1-HA was used as a negative control. Interaction between GST-NPR1 and Myc-CUL3A was performed by co-expression in E. coli as described. For western blotting under reducing conditions, the SDS sample buffer was added to the protein extracts from a 4× stock solution supplemented with 50 mM DTT and 715 mM B-mercaptoethanol. For western blotting under non-reducing conditions, a DDT-and B-mercaptoethanol-free SDS sample buffer was used. […]

Another data set addresses T2, npr1(L281D)-HA (Arabidopsis thaliana, UniProt P93002 1-593).
T2 construct: not shown: C-terminal HA tag from vector pLN462
T2 sequence: T1 sequence with L281D, D284L
The description is as above. As to the method:
as §1, §2

Another data set has as its target T3, npr1(A151P/D152R)-HA (Arabidopsis thaliana, UniProt P93002 1-593).
T3 construct: not shown: C-terminal HA tag from vector pLN462
T3 sequence: T1 sequence with A151P, D152R, D284L
The description is as above. The protocol: as §1, §2

For another data set, the target named is T4, npr1(dim)-HA (Arabidopsis thaliana, UniProt P93002 1-593).
T4 construct: also called L49D/F53D/V56D/V83K; not shown: C-terminal HA tag from vector pLN462
T4 chain: T1 sequence with L49D, F53D, V56D, V83K, D284L
Kind of data set: co-immunoprecipitation of GFP- and HA-fused proteins with anti-HA beads, N. benthamiana, with and without SA. As to the method: as §1
Recombinant protein analysis, co-immunoprecipitation and cell-free oligomerization were performed using total protein extracts from the transient expression assay in N. benthamiana as described previously. […]

Data set [1] concerns the molecule itself. Kind of data set: size-exclusion chromatography (later elution than WT) and low-resolution cryo-EM (single-wing shape). A general note: In gel filtration, larger molecules generally elute earlier.

Substitutions are numbered along the chain they refer to. Names may count otherwise.

B1: TGA3-mRFP (other, Arabidopsis thaliana, UniProt Q39234 1-384, looked up)
chain: MEMMSSSSSTTQVVSFRDMGMYEPFQQLSGWESPFKSDINNITSNQNNNQSSSTTLEVDARPEADDNNRVNYTSVYNNSLEAEPSSNNDQDEDRINDKMKRRLAQNREAARKSRLRKKAHVQQLEESRLKLSQLEQELVRARQQGLCVRNSSDTSYLGPAGNMNSGIAAFEMEYTHWLEEQNRRVSEIRTALQAHIGDIELKMLVDSCLNHYANLFRMKADAAKADVFFLMSGMWRTSTERFFQWIGGFRPSELLNVVMPYVEPLTDQQLLEVRNLQQSSQQAEEALSQGLDKLQQGLVESIAIQIKVVESVNHGAPMASAMENLQALESFVNQADHLRQQTLQQMSKILTTRQAARGLLALGEYFHRLRALSSLWAARPREHT
notes: Transiently co-expressed in N. benthamiana; pulled down with anti-RFP beads; also called AtTGA3; AT1G22070; not shown: C-terminal mRFP from vector pSITE-4NB
B1: the binding result with npr1(L284D)-HA, with npr1(L281D)-HA and with npr1(A151P/D152R)-HA was “no binding” in each case.

B2: npr1(dim)-GFP (other)
chain: T1 sequence with L49D, F53D, V56D, V83K, D284L
notes: also called L49D/F53D/V56D/V83K; not shown: C-terminal eGFP from vector pK7FWG2
B2: the binding result with npr1(dim)-HA was “no binding”.

B3: npr1(dim) mutant (L49D/F53D/V56D/V83K) with C-terminal Strep tag, expressed in insect cells (other)
chain: T1 sequence with L49D, F53D, V56D, V83K, D284L
notes: Full-length; His10-GST removed; Monomeric by size exclusion and low-resolution cryo-EM; not shown: C-terminal Strep tag
For the molecule B3, in data set [1], the binding result is listed as “no binding”.

The values are drawn from patent US20240368617A1, “NPR1 VARIANT TO ENHANCE PLANT RESISTANCE TO BIOTIC AND ABIOTIC STRESSES AND METHOD THEREOF” (Duke University, published 2024).
